# Key:
# Assay in all cases: cell-based or functional assay
# [1] = target: wild-type human carbonic anhydrase II (hCAII) protein (human) (UniProt P00918)
# M64-AAEIR = target: M64-AAEIR
# M64-FAEIR = target: M64-FAEIR
# M64-DAEIR = target: M64-DAEIR
# M64-EAEIR = target: M64-EAEIR
# M64-LAEIR = target: M64-LAEIR
Substance,"IC50 (µM), hCAII functional assay [1]","IC50 (inhibition of pNPA hydrolysis, colorimetric assay) (M64-AAEIR)","IC50 (inhibition of pNPA hydrolysis, colorimetric assay) (M64-FAEIR)","IC50 (inhibition of pNPA hydrolysis, colorimetric assay) (M64-DAEIR)","IC50 (inhibition of pNPA hydrolysis, colorimetric assay) (M64-EAEIR)","IC50 (inhibition of pNPA hydrolysis, colorimetric assay) (M64-LAEIR)"
FAAAE (peptide),152 µM,,,,,
SEQ ID NO: 58 (wild-type hCAI according to the heading of Table 11) (from UniProt P00915 5-261) (enzyme),,0.109 µM,0.012 µM,0.136 µM,1.09 µM,0.016 µM

# Reference: patent publication US20220283175A1, “METALLOENZYMES FOR BIOMOLECULAR RECOGNITION OF N-TERMINAL MODIFIED PEPTIDES” (Encodia, Inc., priority 2020, published 2022)
